One assay relates to TAMRA-cs094B. Kind of assay: FP titration and kinetics, hinge vs TAMRA-cs094B. It counts as binding. Particulars: Effector TAMRA-cs094B; method FP. Here is the method: (§1) All FP measurements were performed at 25° C. in 96-well plates (Corning 3686) using a Synergy Neo2™ plate reader and a 530/590 nm filter cube. The buffer for all FP measurements was 20 mM Tris-HCl, 100 mM NaCl, 0.05% v/v TWEEN20 at pH 8. Titrations were carried out in 96-well format, with 4 replicates per plate and 24 data points per titration (23 steps of two-fold serial dilution of hinges in the presence of TAMRA-labeled peptide at a constant concentration between 0.1 nM and 1 nM) with a final sample volume of 80 μl per well. Titration plates were incubated overnight at room temperature before measuring to ensure complete equilibration. The polarization signal S (as calculated by the Neo2™ software) was fitted to the equation
(§2) where fAB is the fraction of peptide that is bound, Atot is the absolute hinge concentration, Btot is the absolute peptide concentration, S0 is the baseline polarization of free peptide, and S1 is the change in polarization upon complex formation.
(§3) Fitting was performed using the scipy.optimize.curve_fit python function (53). Uncertainties for KD values are standard deviation errors calculated from the covariance matrix of the fits. In cases where the fitted KD was lower than the concentration of the labeled peptide Btot, we report the KD as KD<Btot. […]

For the next assay, the system named is TAMRA-cs269B. Put plainly: FP titration and kinetics, hinge vs TAMRA-cs269B. The assay is classed as binding. Particulars: Effector TAMRA-cs269B; method FP. Here is the method: as §1, §2, §3
For assay [1], the system named is original peptides fused to superfolder green fluorescent protein (sfGFP). Put plainly: SEC binding experiments with original peptides fused to sfGFP. Particulars: FIG. 17C. Here is the method:
(§4) Individual hinge and sfGFP-fused peptides or 3hb were diluted in 20 mM Tris pH 8, 100 mM NaCl and mixed at approximately 1:1 concentrations. 0.5-1 mL of the resulting samples were injected onto a Superdex™ 200 Increase 10/300 GL columns and the absorbance at 230 nm was used as a readout for binding. For sfGFP-fused peptides, 473 nm was also used as readout. Mixtures were at a total concentration of 2. μM or higher.

The subject of the next assay is cs201B. Put plainly: FRET titration and kinetics, labeled extended hinge vs peptide cs201B. The assay is classed as binding. Particulars: FRET titration, 2 nM labeled hinge, peptide cs201B. Here is the method:
(§5) AlexaFluor™ 555 C2 maleimide (donor) and AlexaFluor™ 647 C2 maleimide (acceptor) were purchased from ThermoFisherScientific. Stock solutions at −5 mM were prepared by dissolving 1 mg of each dye in 200 μl DMSO. Hinge variants containing two cysteines were expressed and purified as described above with the modification that 0.5 mM TCEP was used during lysis, IMAC and SEC, and that the buffer for initial SEC contained 20 mM sodium phosphate (PH 7.0) instead of Tris-HCl. After SEC, 500 μl hinge at a concentration of 50 μM was incubated with 500 μM of a single dye for controls or 250 μM each of two dyes. After 2 h incubation at room temperature, samples were purified by SEC using a buffer containing 20 mM Tris-HCl and 100 mM NaCl at pH 8.
The buffer for all FRET measurements was 20 mM Tris-HCl, 100 mM NaCl, 0.05% v/v TWEEN®20 at pH 8. Fluorescence spectra were recorded at room temperature using a FluoroMax™ spectrometer in a 1 cm×1 cm cuvette at a sample volume of 3 ml. FRET titrations and kinetics measurements were performed at 25° C. in 96-well plates (Corning 3686) using a Synergy Neo2™ plate reader. Excitation wavelength was 520 nm and emission wavelength was 665 nm (except for donor-donor controls for which emission wavelength was 555 nm, see FIG. 13B right column).
Titrations were carried out in 96-well format, with 4 replicates per plate and 24 data points per titration (23 steps of two-fold serial dilution of effector (peptide or 3hb) in the presence of double-labeled hinge at a constant concentration of 2 nM) with a final sample volume of 80 μl per well. […] The raw fluorescence signal (donor emission upon acceptor excitation) was fitted to the equation
Fitting was performed using the scipy.optimize.curve_fit python function (53). Uncertainties for KD values are standard deviation errors calculated from the covariance matrix of the fits. […]
For FRET kinetics experiments a 2× hinge solution and 8 different 2× effector solutions at different concentrations were prepared separately. […] Fluorescence signals S at each concentration were fitted individually to the equation […]

The test system of the next assay is cs074B. Kind of assay: FRET titration and kinetics, labeled extended hinge vs peptide cs074B. It counts as binding. Particulars: Effector cs074B; method FRET. Here is the method: as §5, with “After 2 h incubation at room temperature, samples were purified by SEC using a buffer containing 20 mM Tris-HCl and 100 mM NaCl at pH 8.” left out
(§6) The buffer for all FRET measurements was 20 mM Tris-HCl, 100 mM NaCl, 0.05% v/v TWEEN®20 at pH 8. Fluorescence spectra were recorded at room temperature using a FluoroMax™ spectrometer in a 1 cm×1 cm cuvette at a sample volume of 3 ml. FRET titrations and kinetics measurements were performed at 25° C. in 96-well plates (Corning 3686) using a Synergy Neo2™ plate reader. […]
(§7) Titrations were carried out in 96-well format, with 4 replicates per plate and 24 data points per titration (23 steps of two-fold serial dilution of effector (peptide or 3hb) in the presence of double-labeled hinge at a constant concentration of 2 nM) with a final sample volume of 80 μl per well. […] The raw fluorescence signal (donor emission upon acceptor excitation) was fitted to the equation […]

The subject of another assay is TAMRA-cs074B. Put plainly: Fluorescence polarization (FP) titration and kinetics, hinge vs TAMRA-cs074B. It counts as binding. Conditions: Effector TAMRA-cs074B; method FP. The procedure: as §1, §2
Fitting was performed using the scipy.optimize.curve_fit python function (53). Uncertainties for KD values are standard deviation errors calculated from the covariance matrix of the fits. In cases where the fitted KD was lower than the concentration of the labeled peptide Btot, we report the KD as KD<Btot.
For FP kinetics experiments a 2× peptide solution and 8 different 2× hinge solutions at different concentrations were prepared separately. 40 μl of each hinge solution were mixed with 40 μl peptide solution using a multichannel pipet and the measurement was started immediately after mixing. Polarization signals S at each concentration were fitted individually to the equation
where S0 is the amplitude, S1 is the polarization at equilibrium, kapp is the apparent rate constant, t is the time after start of the measurement, and t0 is the dead time between mixing and start of the measurement. For each hinge-peptide pair, the apparent rate constants for 8 different concentrations are fitted to the equation
where koff and kon are observed off- and on rates and Atot is the absolute hinge concentration.
For orientation: In fluorescence polarisation assays a small probe gives low polarisation when free and higher when bound to something large.

The subject of the next assay is cs221B. Put plainly: FRET titration and kinetics, labeled extended hinge vs peptide cs221B. The assay is classed as binding. Conditions: FRET titration, 2 nM labeled hinge, peptide cs221B. The procedure:
as §5, with “After 2 h incubation at room temperature, samples were purified by SEC using a buffer containing 20 mM Tris-HCl and 100 mM NaCl at pH 8.” left out
as §6, §7

The subject of another assay is 3hb05. Put plainly: FRET titration, labeled extended hinge vs 3hb05. It counts as binding. The procedure:
as §5, with “After 2 h incubation at room temperature, samples were purified by SEC using a buffer containing 20 mM Tris-HCl and 100 mM NaCl at pH 8.” left out
as §6, §7

The next assay relates to three-helix bundles. Put plainly: SEC binding experiments with three-helix bundles. Particulars: FIG. 16A. Here is the method: as §4

Sequence of TAMRA-cs074B (as listed by the source): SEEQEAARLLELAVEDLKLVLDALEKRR
Sequence of cs221B (as listed by the source): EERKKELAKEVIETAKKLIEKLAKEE
Sequence of TAMRA-cs269B (as listed by the source): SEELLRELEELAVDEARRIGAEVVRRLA
Sequence of TAMRA-cs094B (as listed by the source): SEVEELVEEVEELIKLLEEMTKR
Sequence of cs201B (as listed by the source): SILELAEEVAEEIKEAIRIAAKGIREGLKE
Sequence of 3hb05 (as listed by the source): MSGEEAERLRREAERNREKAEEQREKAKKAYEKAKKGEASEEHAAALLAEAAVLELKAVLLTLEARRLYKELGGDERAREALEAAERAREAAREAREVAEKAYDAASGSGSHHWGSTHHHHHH

B1: cs094: designed hinge protein, SEQ ID NO:5 (protein)
chain: MSGDEEERLRQEVEKAEKELEKLAKQSTDEEVRKMVREVAKQLRRLAEEAIRQKDDEALRQATEVVKMVQEAVKVAQKTTDQKVILLLLAVALVAIKVAQLAIRSDDTEALRLARIVIRAVQLLVKLVQKTTDPEVRRTALRVAELLAKLAKEAIERNDEEALREASEVVKEVQELVKEAEKSTDEEEIRELLQRAEERIREAQERIREGSGSHHWGSTHHHHHH
For B1, the kon (as a rule, the rate constant with which the complex forms) in the assay with TAMRA-cs094B was found to be 9400 M⁻¹ s⁻¹.

B2: cs269: designed hinge protein, SEQ ID NO:14 (protein)
chain: MSGDEERVRELAERASREAERAVRSGSEESLEEALRNVEELIRKSDSEEARVRVAEAAVRAAAEAAARSGTVEAAAVAVIFTARVLQIVSSSEEAVVRVLAAAAAAAARVAVELGTEEALETALRFVELLVRLADSDEARQRVLRSASESARRSAEESGSERAREVAERFRERIERNQGSGSHHWGSTHHHHHH
As for B2, the on-rate (kon) in the assay with TAMRA-cs269B is 2500 M⁻¹ s⁻¹. Besides, in [1], the “SEC binding experiment with sfGFP-fused original peptide” value is “higher-order peaks”.

B3: cs074F: extended hinge cs074 for FRET labeling, SEQ ID NO:29 (protein)
chain: DEEVQEAVERAEELREEAEELIKKARKTGDPELLRKALEALECAVRAVEEAIKRNPDNDEAVETAVRLARELKKVAEELQERAKKTGDPELLKLALRALKVAVRAVKLAIKSNPDNEEAVKTAVRLARELLKVAEELKERAEKTGDPRLLLLAAEAIAWAIEAVFLAAKASENTEGALEAARAAVKLAEVAKRIAKLLQRDAKKEGDPELLKLALRALELAVRAVELAIKENPDNDEAVETAVRLARELKKVAEELQERAKKTGDPELLKLALRALEVAVRAVELAIKSNPDNEEAVETAKRLAEELRKVAELLEERACETGDPELQELAKRAKEVADRARELAKKSNPNNGSHHHHHH
Take B3: the “off-target binding compared to the on-target interaction for cs074B” value is on record as “three orders of magnitude weaker” in the assay with cs201B and “two orders of magnitude weaker” in the assay on cs221B. In addition, the values for the kon in the assay on cs074B and in the assay on TAMRA-cs074B were 170000 M⁻¹ s⁻¹ and 100000 M⁻¹ s⁻¹, respectively. Also, in the assay with 3hb05, the “affinity compared with the original peptide cs074B” value was “similar”.

B4: cs074: de novo designed two-state hinge protein, SEQ ID NO:4 (protein)
chain: MSGDEEVQEAVERAEELREEAEELIKKARKTGDPELLRKALEALKEAVRAVKEAIKRNPDNEEAVKTAVRLARELLKVAEELKERAEKTGDPRLLLLAAEAIAWAIEAVFLAAKASENTEGALEAARAAVKLAEVAKRIAKLLQRDAKKEGDPELLKLALRALELAVRAVELAIKENPDNEEAVETAKRLAEELRKVAELLEERAKETGDPELQELAKRAKEVADRARELAKKSNPNNGSGSHHWGSTHHHHHH
As for B4, in the assay with three-helix bundles, the “SEC binding to three-helix bundles” value is listed as “clear binding”. The kon in the assay with TAMRA-cs074B worked out at 64000 M⁻¹ s⁻¹.

The values above are taken from US20250236644A1, “De Novo Designed Stimulus-responsive Two-state Hinge Proteins” (University of Washington, priority 2024, published 2025).
